According to patent publication US20190031760A1 (Hoffmann-La Roche, published 2019):
Positions count from the first letter of the chain named. Values belong to the binder of their own block, whether it stands above or below them.

Tests used:
[1] = target: T1, human ASGPR H1 on ASGPR-positive hepatic cells (HepG2, primary human hepatocytes, Huh-7) (human, UniProt P07306 1-291); assay: FACS on HepG2 cells, human IgG1 at 30 µg/ml, 30 min at 4°C, FITC anti-human IgG Fc secondary F(ab')2
T1 construct: whole, on cells; Endogenous receptor on cells; the antibodies were selected on H1; also called surface-exposed ASGPR
T1 sequence (looked up): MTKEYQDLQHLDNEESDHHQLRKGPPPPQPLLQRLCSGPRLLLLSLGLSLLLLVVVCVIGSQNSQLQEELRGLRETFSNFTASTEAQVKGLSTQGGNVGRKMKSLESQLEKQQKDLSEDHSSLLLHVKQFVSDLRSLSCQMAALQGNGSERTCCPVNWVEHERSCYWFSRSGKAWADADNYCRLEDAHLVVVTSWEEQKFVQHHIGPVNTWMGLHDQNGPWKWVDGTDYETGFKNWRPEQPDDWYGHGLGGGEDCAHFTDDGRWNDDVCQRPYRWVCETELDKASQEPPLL

[2] = target: T1, human ASGPR H1 on ASGPR-positive …; assay: FACS on HepG2 cells, antibody 1.25, 6 and 30 µg/ml without or with Alexa488 asialofetuin (100 µg/ml), APC anti-human IgG Fc detection
[3] = target: T2, avi-Fc-human ASGPR H1 CRD (human, UniProt P0DOX5 223-449 = IgG part, biotinylated at the N-terminal Avi tag); assay: SPR (ProteOn XPR36), antigen captured by neutravidin, antibody construct as analyte
T2 construct: also called Fc-CRD; hu/cyASGPR H1 CRD

[4] = target: T3, avi-Fc-human ASGPR H1 stalk CRD (human, biotinylated at the N-terminal Avi tag); assay: SPR (ProteOn XPR36), antigen captured by neutravidin, Fab as analyte;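 as to Kd: antigen surface loaded to 200, 400 or 800 RU in PBST pH 7.4, sensorgrams referenced against a buffer-only in-line channel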;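 as to koff: antigen surface loaded to 200, 400 or 800 RU in PBST pH 7.4, sensorgrams referenced against a buffer-only in-line channel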;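 as to kon: antigen surface loaded to 200, 400 or 800 RU in PBST pH 7.4, sensorgrams referenced against a buffer-only in-line channel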
T3 construct: Homodimeric (bivalent) Fc fusion of the human ASGPR H1 ECD (stalk and CRD); also called huASGPR H1 stalk CRD; Fc-stalk-CRD

[5] = target: T4, avi-Fc-cynomolgus ASGPR H1 stalk (cynomolgus, biotinylated at the N-terminal Avi tag); assay: as above
T4 construct: Homodimeric Fc fusion (wild type Fc); also called cyASGPR H1 stalk

[6] = target: T5, avi-Fc-human CLEC10A stalk CRD (human, biotinylated at the N-terminal Avi tag); assay: as above
T5 construct: Homodimeric Fc fusion of the human CLEC10A ECD, closest homologue of ASGPR H1, used as specificity control; also called huCLEC10A stalk CRD

[7] = target: T6, avi-Fc-human ASGPR H1 stalk (human, biotinylated at the N-terminal Avi tag); assay: as above
T6 construct: Homodimeric Fc fusion (wild type Fc); also called huASGPR H1 stalk; Fc-stalk

[8] = target: T1, human ASGPR H1 on ASGPR-positive …; assay: FACS on HepG2 cells, human IgG1 at 0.01 to 10 µg/ml
[9] = target: T1, human ASGPR H1 on ASGPR-positive …; assay: FACS on HepG2 cells, human IgG1 in a dilution row up to 20 µg/ml, 30 min at 4°C, FITC anti-human IgG Fc secondary

T4 sequence (chain, as listed by the source limits assumed): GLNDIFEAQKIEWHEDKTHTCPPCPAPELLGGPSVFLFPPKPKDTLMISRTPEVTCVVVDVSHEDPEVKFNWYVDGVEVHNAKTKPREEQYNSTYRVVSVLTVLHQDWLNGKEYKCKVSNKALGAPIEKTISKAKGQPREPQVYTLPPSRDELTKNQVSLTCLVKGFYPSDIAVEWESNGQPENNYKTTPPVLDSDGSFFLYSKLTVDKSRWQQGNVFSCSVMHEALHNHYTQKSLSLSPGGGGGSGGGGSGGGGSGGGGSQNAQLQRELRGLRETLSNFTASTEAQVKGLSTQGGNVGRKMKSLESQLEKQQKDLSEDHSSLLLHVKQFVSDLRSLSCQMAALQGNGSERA
T6 sequence (chain, as listed by the source limits assumed): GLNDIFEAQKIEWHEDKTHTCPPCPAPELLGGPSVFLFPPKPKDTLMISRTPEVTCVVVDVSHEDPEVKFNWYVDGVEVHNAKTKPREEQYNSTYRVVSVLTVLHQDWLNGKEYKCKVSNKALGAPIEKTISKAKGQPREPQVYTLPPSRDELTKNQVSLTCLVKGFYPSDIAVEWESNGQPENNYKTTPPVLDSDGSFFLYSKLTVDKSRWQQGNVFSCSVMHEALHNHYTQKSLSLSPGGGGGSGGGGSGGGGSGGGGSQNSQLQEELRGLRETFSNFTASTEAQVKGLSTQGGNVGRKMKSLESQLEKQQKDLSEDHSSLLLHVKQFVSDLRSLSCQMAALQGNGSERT
T5 sequence (chain, as listed by the source limits assumed): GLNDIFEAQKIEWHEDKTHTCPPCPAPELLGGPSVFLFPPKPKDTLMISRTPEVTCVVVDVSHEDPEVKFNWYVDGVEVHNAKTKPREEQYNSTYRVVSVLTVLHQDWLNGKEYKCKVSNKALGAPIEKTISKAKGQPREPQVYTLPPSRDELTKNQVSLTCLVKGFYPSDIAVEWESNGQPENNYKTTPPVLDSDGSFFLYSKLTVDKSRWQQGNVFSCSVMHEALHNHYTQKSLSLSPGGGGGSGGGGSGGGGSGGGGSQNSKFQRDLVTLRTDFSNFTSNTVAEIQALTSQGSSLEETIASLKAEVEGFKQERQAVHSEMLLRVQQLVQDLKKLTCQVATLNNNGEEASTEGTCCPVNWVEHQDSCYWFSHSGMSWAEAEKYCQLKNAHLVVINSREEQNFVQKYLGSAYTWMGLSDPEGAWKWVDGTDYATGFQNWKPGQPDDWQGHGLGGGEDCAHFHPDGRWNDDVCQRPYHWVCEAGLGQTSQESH

binding result [1]: binds
B1: ASGPR 5A4 (antibody, V domains shown)
VH: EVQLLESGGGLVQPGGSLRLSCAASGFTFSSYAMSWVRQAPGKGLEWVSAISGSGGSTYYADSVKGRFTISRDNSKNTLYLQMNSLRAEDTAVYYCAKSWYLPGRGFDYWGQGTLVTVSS
VL: SSELTQDPAVSVALGQTVRITCQGDSLRSYYASWYQQKPGQAPVLVIYGKNNRPSGIPDRFSGSSSGNTASLTITGAQAEDEADYYCNSRLRSGKMVVFGGGTKLTVL
notes: the list has only its Fab and its IgG-IFNα conjugate; also called 5A4 IgG; 5A4 human IgG1 antibody

binding result [2]: binds
Kd [3]: 0.89 nM
koff [3]: 0.000499 s⁻¹
kon [3]: 557000 M⁻¹ s⁻¹
B2: 52C4 IgG (antibody, V domains shown)
VH: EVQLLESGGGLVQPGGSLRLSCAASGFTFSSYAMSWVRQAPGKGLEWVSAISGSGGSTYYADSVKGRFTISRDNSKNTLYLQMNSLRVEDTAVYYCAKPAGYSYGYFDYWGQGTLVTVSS
VL: B1 VL with R90G, L91A, R92S, K95N, M96Q, V97L
notes: also called 52C4 human IgG1 antibody

binding result [4]: no binding
Kd [5]: 3.76 nM
koff [5]: 0.0014 s⁻¹
kon [5]: 372000 M⁻¹ s⁻¹
binding result [6]: no binding
Kd [7]: 4.3 nM
koff [7]: 0.00105 s⁻¹
kon [7]: 244000 M⁻¹ s⁻¹
B3: 5A4 Fab (Fab, V domains shown)
VH: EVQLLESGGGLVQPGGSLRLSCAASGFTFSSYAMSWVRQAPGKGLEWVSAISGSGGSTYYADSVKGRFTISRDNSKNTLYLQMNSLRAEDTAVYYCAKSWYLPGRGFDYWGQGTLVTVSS
VL: B1 VL
notes: Human lambda Fab from E. coli

binding result [8]: binds
B4: 51A12_D1 human IgG1 antibody (antibody, V domains shown)
VH: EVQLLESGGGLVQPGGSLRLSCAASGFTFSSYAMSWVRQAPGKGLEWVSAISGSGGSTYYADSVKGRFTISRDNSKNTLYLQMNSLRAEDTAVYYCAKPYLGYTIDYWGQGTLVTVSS
VL: SSELTQDPAVSVALGQTVRITCQGDSLRSYYASWYQQKPGQAPVLVIYGKNNRPSGIPDRFSGSSSGNTASLTITGAQAEDEADYYCNSRTYSYNRAVRPFGGGTKLTVL
notes: also called 51A12_D1 IgG1-converted antibody

binding result [9]: binds
B5: 51A12_H6 human IgG1 antibody (antibody, V domains shown)
VH: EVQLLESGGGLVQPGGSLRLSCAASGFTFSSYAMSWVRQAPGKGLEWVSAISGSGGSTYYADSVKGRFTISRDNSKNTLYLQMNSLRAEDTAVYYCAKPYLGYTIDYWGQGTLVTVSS
VL: B4 VL with T91D, S93K, Y94W, A97V, P100H
notes: also called 51A12_H6 IgG1-converted antibody

binding result [9]: binds
B6: 51A12_H3 human IgG1 antibody (antibody, V domains shown)
VH: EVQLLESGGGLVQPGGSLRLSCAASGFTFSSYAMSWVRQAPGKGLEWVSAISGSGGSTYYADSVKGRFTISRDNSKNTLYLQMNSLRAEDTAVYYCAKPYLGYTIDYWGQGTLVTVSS
VL: B4 VL with T91D, S93K, Y94F, A97V, P100N
notes: also called 51A12_H3 IgG1-converted antibody
